According to patent publication US20050182242A1, “Global analysis of protein activities using proteome chips” (priority 2001, published 2005):

B1: ARO4: yeast GST-HisX6 fusion protein on proteome chip (protein, UniProt P32449 2-370, looked up)
Phospho-2-dehydro-3-deoxyhepto …: SESPMFAANGMPKVNQGAEEDVRILGYDPLASPALLQVQIPATPTSLETAKRGRREAIDIITGKDDRVLVIVGPCSIHDLEAAQEYALRLKKLSDELKGDLSIIMRAYLEKPRTTVGWKGLINDPDVNNTFNINKGLQSARQLFVNLTNIGLPIGSEMLDTISPQYLADLVSFGAIGARTTESQLHRELASGLSFPVGFKNGTDGTLNVAVDACQAAAHSHHFMGVTKHGVAAITTTKGNEHCFVILRGGKKGTNYDAKSVAEAKAQLPAGSNGLMIDYSHGNSNKDFRNQPKVNDVVCEQIANGENAITGVMIESNINEGNQGIPAEGKAGLKYGVSITDACIGWETTEDVLRKLAAAVRQRREVNKK
modifications: GST-His6 fusion tag
notes: yeast GST-HisX6 fusion protein on proteome chip
B2: DTR1: yeast GST-HisX6 fusion protein on proteome chip (protein, UniProt P38125 1-572, looked up)
Dityrosine transporter 1: MGSEPFQKKNLGLQINSQESGTTRSTFHSLEDLGDDVINESWDQVNQKRANIDHDVFHEHPDSSPSLSAQKAKTKEEEVAVKSSNSQSRDPSPDTQAHIPYTYFSKDQRLIIFGIIIFIGFLGPMSGNIYIPALPLLQREYDVSATTINATVSVFMAVFSVGPLFWGALADFGGRKFLYMVSLSLMLIVNILLAAVPVNIAALFVLRIFQAFASSSVISLGAGTVTDVVPPKHRGKAIAYFMMGPNMGPIIAPIVAGLILMKGNYWRWLFGFTSIMTGIALILVTALLPETLRCIVGNGDPKWGDKKDERENNESPFFEGNKISHRRLFPDIGIRKPVNNDAFFQENFPKPPKAGLTLYWKMIKCPPIIITSVSTALLFSSYYAFSVTFSYYLEHDYRFTMLEIGAAYVCPGVAMLLGSQSGGHLSDYLRSRWIKSHPKKKFPAEFRLLLNLIGILLTICGTIGYGWAIFFHYHFVVLLVFSALTAFGMTWCSNTSMTYLTELFPKRAAGTVAVSSFFRNVGAAISSAIILQLCNAMGIGWCFTGLGLCSSISLIGILYLLIFQRKYTAKEF
modifications: GST-His6 tag
notes: as for B1
B3: ARG1: yeast GST-HisX6 fusion protein on proteome chip (protein, UniProt P22768 1-420, looked up)
Argininosuccinate synthase: MSKGKVCLAYSGGLDTSVILAWLLDQGYEVVAFMANVGQEEDFDAAKEKALKIGACKFVCVDCREDFVKDILFPAVQVNAVYEDVYLLGTSLARPVIAKAQIDVAKQEGCFAVSHGCTGKGNDQIRFELSFYALKPDVKCITPWRMPEFFERFAGRKDLLDYAAQKGIPVAQTKAKPWSTDENQAHISYEAGILEDPDTTPPKDMWKLIVDPMDAPDQPQDLTIDFERGLPVKLTYTDNKTSKEVSVTKPLDVFLAASNLARANGVGRIDIVEDRYINLKSRGCYEQAPLTVLRKAHVDLEGLTLDKEVRQLRDSFVTPNYSRLIYNGSYFTPECEYIRSMIQPSQNSVNGTVRVRLYKGNVIILGRSTKTEKLYDPTESSMDELTGFLPTDTTGFIAIQAIRIKKYGESKKTKGEELTL
modifications: GST-His6 tag
notes: as for B1
B4: PAU5: yeast GST-HisX6 fusion protein on proteome chip (protein, UniProt P43575 1-122, looked up)
Seripauperin-5: MVKLTSIAAGVAAIAAGASAAATTTLSQSDERVNLVELGVYVSDIRAHLAEYYSFQAAHPTETYPVEIAEAVFNYGDFTTMLTGIPADQVTRVITGVPWYSSRLKPAISSALSADGIYTIAN
modifications: GST-His6 fusion tag
notes: as for B1
B5: ERV1: yeast GST-HisX6 fusion protein on proteome chip (protein, UniProt P27882 1-189, looked up)
Mitochondrial FAD-linked …: MKAIDKMTDNPPQEGLSGRKIIYDEDGKPCRSCNTLLDFQYVTGKISNGLKNLSSNGKLAGTGALTGEASELMPGSRTYRKVDPPDVEQLGRSSWTLLHSVAASYPAQPTDQQKGEMKQFLNIFSHIYPCNWCAKDFEKYIRENAPQVESREELGRWMCEAHNKVNKKLRKPKFDCNFWEKRWKDGWDE
modifications: GST-His6 tag
notes: as for B1
B6: HIS7: yeast GST-HisX6 fusion protein on proteome chip (protein, UniProt P33734 1-552, looked up)
Imidazole glycerol phosphate …: MPVVHVIDVESGNLQSLTNAIEHLGYEVQLVKSPKDFNISGTSRLILPGVGNYGHFVDNLFNRGFEKPIREYIESGKPIMGICVGLQALFAGSVESPKSTGLNYIDFKLSRFDDSEKPVPEIGWNSCIPSENLFFGLDPYKRYYFVHSFAAILNSEKKKNLENDGWKIAKAKYGSEEFIAAVNKNNIFATQFHPEKSGKAGLNVIENFLKQQSPPIPNYSAEEKELLMNDYSNYGLTRRIIACLDVRTNDQGDLVVTKGDQYDVREKSDGKGVRNLGKPVQLAQKYYQQGADEVTFLNITSFRDCPLKDTPMLEVLKQAAKTVFVPLTVGGGIKDIVDVDGTKIPALEVASLYFRSGADKVSIGTDAVYAAEKYYELGNRGDGTSPIETISKAYGAQAVVISVDPKRVYVNSQADTKNKVFETEYPGPNGEKYCWYQCTIKGGRESRDLGVWELTRACEALGAGEILLNCIDKDGSNSGYDLELIEHVKDAVKIPVIASSGAGVPEHFEEAFLKTRADACLGAGMFHRGEFTVNDVKEYLLEHGLKVRMDEE
modifications: GST-His6 fusion tag
notes: as for B1

Experiments:
Details in all cases: liposome binding signal on yeast proteome chip, Cy3-streptavidin detection
[1] = test system: phosphatidylcholine (PC) liposomes; experiment: Yeast proteome chip probed with PC liposomes
Summary of the method: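 Sonicated liposomes in TBS, of phosphatidylcholine with 1% (w/w) biotin-DHPE plus 5% (w/w) of the named phosphoinositide (PC-only liposomes lacking it), were incubated on blocked chips of GST-RGS-His6-tagged yeast ORF proteins for 1 h at RT. Bound liposomes were detected with Cy3- or Cy5-streptavidin after PBS washes.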

[2] = test system: PI(4,5)P2 liposomes; experiment: Yeast proteome chip probed with PI(4,5)P2 liposomes
[3] = test system: PI(4)P liposomes; experiment: Yeast proteome chip probed with PI(4)P liposomes
[4] = test system: PI(3)P liposomes; experiment: Yeast proteome chip probed with PI(3)P liposomes
Description: To identify PI-binding proteins in yeast, liposomes were used as probes because the liposome provides the most relevant physiological condition to assay the interactors. Six types of liposomes were used. Each contains phosphatidylcholine (“PC”) with 1% (w/w) N-(biotinoyl)-1,2-dihexadecanoyl-sn-glycero-3-phosphoethanolamine, triethylammonium salt (biotin DHPE). The biotinylated lipid serves as a label that can be detected by Cy3-streptavidin (21). In addition to PC, the five other liposomes contain either 5% (w/w) PI(3)P, PI(4)P, PI(3,4)P2, PI(4,5)P2, or PI(3,4,5)P3 (FIG. 3A).
The protein-liposome interaction was assayed as follows. Appropriate amounts of each lipid in chloroform were mixed and dried under nitrogen. The lipid mixture was resuspended in TBS buffer by vortexing. The liposomes were created by sonication. Blocked proteome chips were washed three to five times in PBS buffer, and the extra liquid on the glass surface was removed by tapping the slides vertically on a KIMWIPE™. 200 μl of liposome solution was added to the proteome chip and immediately covered by a hydrophobic plastic cover slip (GRACE BIO-LAB™, USA). After trapped air bubbles were removed, the chip was incubated in a humidity chamber at RT for one hour. To remove the cover slip, the chip was immersed into large volume of PBS buffer (50 ml), so that the slip would float away. The chip was then moved to a second PBS bath (>50 ml) and washed 3×5 min with shaking at RT. After removing extra liquid on the surface of the chip, about 100 μl of Cy3 or Cy5 conjugated streptavidin (PIERCE™, USA; 1:2000 to 1:4000 dilution) was added to the surface and covered by a hydrophobic plastic cover slip (GRACE BIO-LABS™, USA). The chip was incubated for greater than 30 min in the dark at RT. The chip was then washed as described above. To completely remove the liquid on the chip, the chip was spun to dryness at 1500-2000 rpm for 5-10 min at RT.
• 1. S. Fields, Y. Kohara, D. J. Lockhart, Proc. Natl. Acad. Sci. 96, 8825 (1999); A. Goffeau et al., Science 274, 563 (1996). • 2 P. Ross-Macdonald et al., Nature 402, 413 (1999); J. L., DeRisi, V. R. Iyer, P. O. Brown, Science 278, 680 (1997); E. A. Winzeler et al., Science 285, 901 (1999). P. Uetz et al., Nature 403, 623 (2000); T. Ito et al., Proc. Natl. Acad. Sci. USA. 97, 1143 (2000) • 3 H. Zhu, M. Snyder, Curr. Opin. Chem. Biol. 5, 40 (2001). • 4 M. R. Martzen et al., Science 286, 1153 (1999). • 5 H. Zhu et al., Nat. Genet. 26, 283 (2000). • 6 G. MacBeath, S. L. Schreiber, Science 289, 1760 (2000). • 7 A. Caveman, J. Cell Sci. 113, 3543 (2000). • 8 P. Arenkov et al., Anal. Biochem 278, 123 (2000). • 9 D. A. Mitchell, T. K. Marshall, R. J. Deschenes, Yeast 9, 715 (1993). The expression vector pEGH was created by inserting an RGS-HisX6 epitope tag between the GST gene and the polycloning site of pEG(KG). The yeast ORFs were cloned using the strategy described previously (5), except every step was done in a 96-well format. Plasmid DNAs confirmed by DNA sequencing were reintroduced into both yeast (Y258) and E. coli (DH5a). […] 0.1 mM calcium was present in buffers in all subsequent steps. The chip was washed three times with PBS at RT. Cy3-conjugated streptavidin (Jackson IR, USA) (1:5000 dilution) was added to the chip and incubated for 30 min at RT. After extensive washing, the chip was spun dry and scanned using a microarray scanner; the data was subsequently acquired with the GENEPIX™ array densitometry software (Axon, USA). • 12 S. S. Hook, A. R. Means, Annu. Rev. Pharmacol. Toxicol.41, 471 (2001). • 13 M. S. Cyert, R. Kunisawa, D. Kaim, J. Thorner, Proc. Natl. Acad. Sci. USA 88, 7376 (1991). • 14 D. A. Stirling, K. A. Welch, M. J. Stark, EMBO J. 13, 4329 (1994). • 15 F. Bohl, Kruse, EMBO J. 19, 5514 (2000); E. Bertrand et al., Mol. Cell 2, 437 (1998). • 16 D. C. Winter, E. Y. Choe, R. Li, Proc. Nat. Acad Sci. USA 96, 7288 (1999). • 17 C.

[5] = test system: PI(3,4,5)P3 liposomes; experiment: Yeast proteome chip probed with PI(3,4,5)P3 liposomes
[6] = test system: PI(3,4)P2 liposomes; experiment: Yeast proteome chip probed with PI(3,4)P2 liposomes

| Molecule | PC [1] | PI(4, 5)P2 [2] | PI(4)P [3] | PI(3)P [4] | PI(3, 4, 5)P3 [5] | PI(3, 4)P2 [6] |
| --- | --- | --- | --- | --- | --- | --- |
| B1 | 28.17 | 20.47 | 42.24 | 87.50 | 29.25 | 34.53 |
| B2 | 24.07 | 3.05 | −4.79 | 23.00 | 13.72 | 2.83 |
| B3 | 23.77 | 3.48 | −6.31 | 213.00 | −6.08 | 1.73 |
| B4 | 22.30 | −1.31 | 31.35 | −3.00 | – | −5.02 |
| B5 | – | 18.94 | −3.27 | 15.75 | 1.35 | – |
| B6 | 193.11 | 18.73 | 226.45 | 20.00 | 78.07 | – |
